The source of these data is article PMC6313406.

The experiment concerns the target Dimeric Lip3 (isoenzyme 3 of Candida rugosa lipase) (Candida rugosa) (UniProt P32947). Briefly: SEC; Sephacryl S200 column (1.6x60 cm), 25 mM Tris/HCl pH 7.5, 0.15 M NaCl, 0.3 mL/min, no detergent; calibrated with the high molecular weight marker kit.

For “Dimeric Lip3 (isoenzyme 3 of Candida rugosa lipase) (from UniProt P32947 16-549)”, the stoichiometry N stood at 2.
